The Immune Epitope Database (IEDB)

Key:
HLA-A*02:03 [1] = test: IEDB peptide-MHC binding, cellular MHC/competitive/fluorescence; ≥ and ≤ were set here for values at or beyond the usual limits of such assays
HLA-A*02:02 [2] = test: as above
HLA-A*02:01 [3] = test: as above
HLA-A*68:02 = test: as above
HLA-A*02:06 [4] = test: as above
HLA-A*03:01 = test: as above; details: source organism: Hepatitis B virus
HLA-A*11:01 = test: as above; details: source organism: Hepatitis B virus
HLA-A*68:01 = test: as above; details: source organism: Hepatitis B virus
HLA-A*02:03 [5] = test: IEDB peptide-MHC binding, purified MHC/competitive/radioactivity; ≥ and ≤ were set here for values at or beyond the usual limits of such assays; details: source organism: Hepatitis B virus
HLA-A*02:02 [6] = test: as above; details: source organism: Hepatitis B virus
HLA-A*31:01 [7] = test: as above; details: source organism: Hepatitis B virus
HLA-A*31:01 [8] = test: IEDB peptide-MHC binding, cellular MHC/competitive/fluorescence; ≥ and ≤ were set here for values at or beyond the usual limits of such assays; details: source organism: Hepatitis B virus
HLA-A*02:06 [9] = test: IEDB peptide-MHC binding, purified MHC/competitive/radioactivity; ≥ and ≤ were set here for values at or beyond the usual limits of such assays; details: source organism: Hepatitis B virus
HLA-A*02:01 [10] = test: as above; details: source organism: Hepatitis B virus
[11] = source organism: Influenza A virus
[12] = source organism: Hepatitis B virus
[13] = source organism: Vaccinia virus WR

Sequence: PAEMLANI
- IC50 (HLA-A*02:03 [1]; [11]): ≥ 70 µM
- IC50 (HLA-A*02:02 [2]; [11]): ≥ 70 µM
- IC50 (HLA-A*02:01 [3]; [11]): ≥ 70 µM
- IC50 (HLA-A*68:02; [11]): ≥ 70 µM
- IC50 (HLA-A*02:06 [4]; [11]): ≥ 70 µM

Sequence: RVRGLYFPA
- IC50 (HLA-A*03:01): ≥ 70 µM
- IC50 (HLA-A*02:01 [3]; [12]): 18 µM
- IC50 (HLA-A*11:01): ≥ 70 µM
- IC50 (HLA-A*68:02; [12]): 17.2 µM
- IC50 (HLA-A*02:06 [4]; [12]): 8.24 µM
- IC50 (HLA-A*68:01): ≥ 70 µM
- IC50 (HLA-A*02:03 [5]): 3960 nM
- IC50 (HLA-A*02:02 [6]): 3120 nM
- IC50 (HLA-A*31:01 [7]): 24 nM

Sequence: LLLVVQALR
- IC50 (HLA-A*02:03 [1]; [11]): 34.6 µM
- IC50 (HLA-A*02:02 [2]; [11]): 10.7 µM
- IC50 (HLA-A*02:01 [3]; [11]): 10.2 µM
- IC50 (HLA-A*68:02; [11]): 60.4 µM
- IC50 (HLA-A*02:06 [4]; [11]): 8.59 µM

Sequence: TVDHMAII
- IC50 (HLA-A*02:03 [1]; [11]): 13 µM
- IC50 (HLA-A*02:02 [2]; [11]): ≥ 70 µM
- IC50 (HLA-A*02:01 [3]; [11]): ≥ 70 µM
- IC50 (HLA-A*68:02; [11]): 39.7 µM
- IC50 (HLA-A*02:06 [4]; [11]): 41.8 µM

Sequence: GLLGWSPQA
- IC50 (HLA-A*03:01): 14 µM
- IC50 (HLA-A*31:01 [8]): 9.14 µM
- IC50 (HLA-A*11:01): ≥ 70 µM
- IC50 (HLA-A*68:02; [12]): ≥ 70 µM
- IC50 (HLA-A*68:01): ≥ 70 µM
- IC50 (HLA-A*02:02 [6]): 51 nM
- IC50 (HLA-A*02:06 [9]): 1050 nM

Sequence: VIVENDNVI
- IC50 (HLA-A*02:03 [1]; [13]): 19.5 µM
- IC50 (HLA-A*02:02 [2]; [13]): 15.5 µM
- IC50 (HLA-A*02:01 [3]; [13]): 25.6 µM
- IC50 (HLA-A*68:02; [13]): 8.02 µM
- IC50 (HLA-A*02:06 [4]; [13]): 7.24 µM

Sequence: AVSVYGAIT
- IC50 (HLA-A*02:03 [1]; [13]): 9.62 µM
- IC50 (HLA-A*02:02 [2]; [13]): 11.4 µM
- IC50 (HLA-A*02:01 [3]; [13]): 7.23 µM
- IC50 (HLA-A*68:02; [13]): 6.28 µM
- IC50 (HLA-A*02:06 [4]; [13]): 14.2 µM

Sequence: FLCKQYLNL
- IC50 (HLA-A*03:01): ≥ 70 µM
- IC50 (HLA-A*31:01 [8]): 26.3 µM
- IC50 (HLA-A*11:01): ≥ 70 µM
- IC50 (HLA-A*68:02; [12]): ≥ 70 µM
- IC50 (HLA-A*68:01): ≥ 70 µM
- IC50 (HLA-A*02:03 [5]): 11 nM
- IC50 (HLA-A*02:02 [6]): 175 nM
- IC50 (HLA-A*02:06 [9]): 1110 nM

Sequence: KQYLNLYPV
- IC50 (HLA-A*03:01): ≥ 70 µM
- IC50 (HLA-A*11:01): 30.4 µM
- IC50 (HLA-A*68:02; [12]): 36.8 µM
- IC50 (HLA-A*68:01): ≥ 70 µM
- IC50 (HLA-A*02:03 [5]): 4.5 nM
- IC50 (HLA-A*02:02 [6]): 224 nM
- IC50 (HLA-A*02:01 [10]): 138 nM
- IC50 (HLA-A*31:01 [7]): 189 nM
- IC50 (HLA-A*02:06 [9]): 11 nM

Sequence: ATALANTI
- IC50 (HLA-A*02:03 [1]; [11]): 22.4 µM
- IC50 (HLA-A*02:02 [2]; [11]): 42.9 µM
- IC50 (HLA-A*02:01 [3]; [11]): 21.9 µM
- IC50 (HLA-A*68:02; [11]): 40.8 µM
- IC50 (HLA-A*02:06 [4]; [11]): ≥ 70 µM

Sequence: YIKDLKHAT
- IC50 (HLA-A*02:03 [1]; [13]): ≥ 70 µM
- IC50 (HLA-A*02:02 [2]; [13]): 18.5 µM
- IC50 (HLA-A*02:01 [3]; [13]): 8.08 µM
- IC50 (HLA-A*68:02; [13]): ≥ 70 µM
- IC50 (HLA-A*02:06 [4]; [13]): 39.4 µM

Sequence: DILQMREIIT
- IC50 (HLA-A*02:03 [1]; [13]): 56.2 µM
- IC50 (HLA-A*02:02 [2]; [13]): 45.5 µM
- IC50 (HLA-A*02:01 [3]; [13]): 31.1 µM
- IC50 (HLA-A*68:02; [13]): 20.3 µM
- IC50 (HLA-A*02:06 [4]; [13]): 17.7 µM

Sequence: TIEDDKIVTM
- IC50 (HLA-A*02:03 [1]; [13]): 17.2 µM
- IC50 (HLA-A*02:02 [2]; [13]): 17 µM
- IC50 (HLA-A*02:01 [3]; [13]): 13.3 µM
- IC50 (HLA-A*68:02; [13]): 38.8 µM
- IC50 (HLA-A*02:06 [4]; [13]): 26.1 µM
